{
  "source": "patent US20070224662",
  "proteins": {"B1": {"name": "MKK6 (no-tag upstream kinase) (protein)", "chain": "MSQSKGKKRNPGLKIPKEAFEQPQTSSTPPRDLDSKACISIGNQNFEVKADDLEPIMELGRGAYGVVEKMRHVPSGQIMAVKRIRATVNSQEQKRLLMDLDISMRTVDCPFTVTFYGALFREGDVWICMELMDTSLDKFYKQVIDKGQTIPEDILGKIAVSIVKALEHLHSKLSVIHRDVKPSNVLINALGQVKMCDFGISGYLVDSVAKTIDAGCKPYMAPERINPELNQKGYSVKSDIWSLGITMIELAILRFPYDSWGTPFQQLKQVVEEPSPQLPADKFSAEFVDFTSQCLKKNSKERPTYPELMQHPFFTLHESKGTDVASFVKLILGD"}},
  "biological_target": "inactive (non-phosphorylated) HIS-tagged MAPK14",
  "sequence (chain, as listed by the source)": "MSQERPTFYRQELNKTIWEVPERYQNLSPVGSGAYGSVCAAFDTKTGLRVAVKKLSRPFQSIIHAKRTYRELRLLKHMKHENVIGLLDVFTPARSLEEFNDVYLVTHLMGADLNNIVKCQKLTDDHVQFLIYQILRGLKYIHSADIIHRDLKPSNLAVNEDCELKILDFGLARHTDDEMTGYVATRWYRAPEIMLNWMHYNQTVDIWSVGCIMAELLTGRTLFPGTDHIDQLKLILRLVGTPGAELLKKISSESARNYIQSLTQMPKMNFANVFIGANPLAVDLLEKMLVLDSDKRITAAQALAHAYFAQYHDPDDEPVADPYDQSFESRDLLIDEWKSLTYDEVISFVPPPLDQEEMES",
  "data": [
    {"protein": "B1", "values": [
      {"measurement": "amount of phosphorylated MAPK14, Western blot with the p38 antibody, at decreasing MKK6 plasmid (FIG. 3)", "value": "as the concentration of the MKK6 plasmid present in the reaction was decreased, the amount of phosphorylation MAPK14 similarly decreased"},
      {"measurement": "phosphorylation of MAPK14, Western blot with anti-phospho-p38 antibody (FIG. 2)", "value": "co-expression of MAPK14 with MKK6 in the presence of an HEK 293 cell extract greatly enhances the phosphorylation of proteins present in the reaction"}
    ]}
  ]
}
